Test: soluble on expression in E. coli; label from the status in PepcDB or PDB records

Sequence	soluble on expression in E. coli
MLDPARSFDIIGDVHGCALTLERLLDALGYKRVAGVWRHPRRQALFLGDIVDRGPRIREALHIVHDMVEAGQAFCIMGNHEYNALGWVTPALPGSGKAYVREHTPRHARLIDETLTQFAQHPGDWHDFVNWFYQLPLFIDAGRFRLVHACWDPRLIEPLRQQYPDGRIDEHFIQASAVSGSFADTVCNRLLRGTDMRLPDGLTLTGGDGLTRAFFRTKFWEEDPKTYGDIVFQPDALPEEVASTPLSHSQKNALLRYDEDQPMLFVGHYWRSGRPAPIRANLACLDYSAVLYGKLVAYRLDDETRIDPHKFVWVDVDRPQANQLEHHHHHH	soluble
MNKKSSSMVNMPAPREPINQKIDTNNALVLNHNAIYEQRLAEITQSNTCDKAIVTVNPYGTAPLSLYLGVWMDEAAALEINVVDSEATTEEVRYQYDVHPGANLIPVCGMVSAVNNQITLRLASQIVGQYTVMTDALPPTDSANVSLGFPIISVSCPAQQASLMEEGLYFSTYFDRYNLAFDHNGIVRWYVSQEIPSYNFVRMDNGHFLATSQGINHCLNMYEFDIMGRVYTVYLLDNEFHHSILPIENNLAIAPSEYSNGRPDGYSTGKDGVSIINLSTGLEVAYYDMLYVMDYSRSPRPSGSAPGQDVSMDDWLHINQSYINEPNNLLICSGRHQSAIFGVNVDSGELRFIMANHEDWSDEFKQYLLTPVDDDGVPLYDLTSPGGIDAADKNFWTWGQHNIVEIPNDEPGILEFMVFDNGNYRSREDAKSLLPLDNFSRVVQFKINLNTMTVTRPYEYGKTEVGNRGYSSFVSAKHLLTNGHLVIHFGATTVDEFEHTITAQPGSSDLVDPDEGQQALGRLVLQEINKETKEVLFEAMVTSGYFKNEETNGTNYRYDISAFRVYKMPLFALEHHHHHH	soluble
MSSFLFENAAILDGQARELRENQHVLVEANRIIEVSDKPIKSKNSERINVNGMTLMPGLIDAHVHVKATIVNVGRLSDIPVSYLTADAGKFMRQMLMRGFTTVRDAGGADRGLADAVTDGLLIGPRLFVSGLSLSQTGGHGDMRPVTSDSHPITCACLASTQQLGRIADGVDECRRAARDELRKGAHQIKIMAGGGVASPNDPIQNTQYSVEEIRAICEEAAAAHTYVMAHAYVPAAISRAIENGVRTIEHGNLLDAEAAKVMSKHNAFLVPTNVTYRALYKHGKSFGFPEVSIGKLKDVLDVGLSAIEIAKNNGVKIGHGSDLLGECQVYQSDELSIKAEVVGNYEAIRHATEVNAEILNMTGELGVIKENALADILIVDGNPIKDVGFLSNDAKFIPNNNER	soluble
MKIALIQQKFHLNKEQTIKKTCEFIEEASKQGAELVCLGELHQSEYFCQSENVDFFDYANDYEKDVKFWANIARKNQIVLIASLFEKRSAGLYHNTAVVFEKDGSIAGKYRKMHIPDDPCFYEKFYFTPGDLGFEPINTSLGKLGVLICWDQWYPEAARIMALKGAEILIYPTAIGWFDKDKDEEKQRQLNAWLGVQKGHAIANGLYVVAINRVGFEKDVSGVEEGIRFWGNSFVFGPQGEELCLLDSQNECVKIIEIDKKRSENVRRWWPFLRDRRIEYFTDLTKRFID	soluble
MIRPKPIAFEQPQTMPSILYPIHPPFRREELVTPTRENQIFKELLISISIYNSGEERLERITRPPLMASIPNGRFYNCRVRSSGSKTKAIFQQFKISVCSRE	not soluble
MGHHHHHHSHMKTRQAFYLHTTKLTRIARRLCREILRPWHAARHPYLPINSAAIKAECTARLPEASQSPLVLKQAVRKPLEAVLRYLETHPRPPKPDPVKSVSSVLSSLTPAKVAPVINNGSPTILGKRSYEQHNGVDGNMKKRLLMPSRGLANHGQTRHMGPSRNLLLNGKSYPTKVRLIRGGSLPPVKRRRMNWIDAPDDVFYMATEETRKIRKLLSSSETKRAARRPYKPIALRQSQALPPRPPPPAPVNDEPIVIED	soluble
MSLKYYLAPMEGITGFIYRNSYEKFFGGIDKYFAPFVVPNSSKSLKTKELRDVLPENNKGINLVPQILTNDSEGFISTARKLKQLGYNEINLNLGCPSGTVVGKKRGSGFLAHKEELDKFLEEIFKIDDMKLSIKTRLGMDKPEEFYELIKIYNKYPMEELIIHPRTRQDFYANKPNLEVFKDAISLSKNPICYNGDIFTVEDHNKLIETFPEVDKIMLGRGILANPALMNEILNNEFMDKKVLKEFHDEVFNKYREVFNEDRNAMFRMKELWGYMIYMFSNNKKYAKKIKKAQKVVEYNQAVTSLFLEQDILKGAGLFSSEEGHHHHHH	soluble
MFIPQIVPIRDLKNTSAISNLCHKTNEPIFITKNGYGDMVIMSMETYEGNAFFNNLYGNLEEAEMDLQNGRVSGIDEAIEEIKSRYDLEHHHHHH	not soluble
